Results published in patent publication US20070275900A1.

Target: purified CD26 (dipeptidyl-peptidase IV, EC 3.4.14.5) (human) (UniProt P27487)
Test: cell-based or functional assay

Sequence of purified CD26 (dipeptidyl-peptidase IV, EC 3.4.14.5) (human) (P27487 whole entry, form in doubt): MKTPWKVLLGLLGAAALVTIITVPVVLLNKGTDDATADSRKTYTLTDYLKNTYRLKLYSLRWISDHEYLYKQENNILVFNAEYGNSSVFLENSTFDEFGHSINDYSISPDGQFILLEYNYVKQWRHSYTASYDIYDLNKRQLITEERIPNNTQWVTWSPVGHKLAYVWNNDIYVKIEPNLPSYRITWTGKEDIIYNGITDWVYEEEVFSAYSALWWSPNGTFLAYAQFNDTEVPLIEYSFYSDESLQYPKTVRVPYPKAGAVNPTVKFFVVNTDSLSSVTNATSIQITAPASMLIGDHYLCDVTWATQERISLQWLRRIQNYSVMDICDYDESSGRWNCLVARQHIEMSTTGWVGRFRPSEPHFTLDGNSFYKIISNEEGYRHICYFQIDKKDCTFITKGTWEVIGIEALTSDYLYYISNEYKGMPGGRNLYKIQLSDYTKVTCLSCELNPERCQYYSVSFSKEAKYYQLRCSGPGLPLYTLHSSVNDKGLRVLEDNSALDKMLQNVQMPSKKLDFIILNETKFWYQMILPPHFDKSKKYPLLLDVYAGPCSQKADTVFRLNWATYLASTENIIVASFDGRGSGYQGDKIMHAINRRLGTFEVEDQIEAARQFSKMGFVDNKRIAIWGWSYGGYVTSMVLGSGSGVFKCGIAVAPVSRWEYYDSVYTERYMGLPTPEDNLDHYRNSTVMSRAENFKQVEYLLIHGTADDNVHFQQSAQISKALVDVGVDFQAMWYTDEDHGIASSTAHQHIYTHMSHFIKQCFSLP

- inhibition of conversion of 50 µM CAM-405 to CAM-212 by purified CD26, 100 µM diprotin A: > 50%
Substance: Diprotin A (peptide)
